In brackets after ≈: the same amount, converted by molar mass. Like-named read-outs stand apart in the source and are kept apart here. Starred links: 1 amine or outer side, 2 acyl side, 3 side chain; linkers in the order of their positions; H or OH if unused. Non-standard residues stand in square brackets, D forms with d. Residues, ends and D or L forms follow the SMILES beside them. Groups on a side chain read outwards from the residue. No end group written: not given here. *: point of attachment. C20 diacid = O=C(O)CCCCCCCCCCCCCCCCCCC(=O)*; C18 diacid = O=C(O)CCCCCCCCCCCCCCCCC(=O)*; γGlu = O=C(O)[C@H](CCC(=O)[*:2])N[*:1]; AEEA = NCCOCCOCC(=O)O; Aib = CC(C)(N)C(=O)O
Columns and labels:
[1] = target: T1, endogenous human CRF2 (Homo sapiens, UniProt Q13324); assay: cAMP agonist effect in NCI-H82 cells expressing endogenous human CRF2 (Example 10); type: cell-based; conditions: cAMP HTRF, 5 min activation
T1 construct: endogenous in cells; host or cells: NCI-H82
T1 sequence (Q13324 1-411): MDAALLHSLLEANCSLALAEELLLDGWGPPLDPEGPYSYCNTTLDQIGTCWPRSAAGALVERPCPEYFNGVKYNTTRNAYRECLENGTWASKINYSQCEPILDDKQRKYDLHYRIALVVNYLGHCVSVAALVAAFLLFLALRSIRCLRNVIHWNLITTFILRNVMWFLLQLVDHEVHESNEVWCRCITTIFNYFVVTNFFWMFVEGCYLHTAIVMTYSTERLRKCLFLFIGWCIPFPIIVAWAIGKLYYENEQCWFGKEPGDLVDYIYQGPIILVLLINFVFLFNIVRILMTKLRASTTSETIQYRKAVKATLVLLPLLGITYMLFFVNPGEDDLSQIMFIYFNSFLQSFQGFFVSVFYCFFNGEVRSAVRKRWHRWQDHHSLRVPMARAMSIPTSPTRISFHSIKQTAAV
Procedure: The agonist effect of the compounds was assessed in NCI-H82 cells expressing endogenous human CRF2.
NCI-H82 cells in suspension were plated in low-volume 384-well plates at a density of 30000 cells/well in 5 μl of test medium (RPMI+1 mM IBMX). The plates were briefly centrifuged at 800 rpm to allow the cell suspension to move to the bottom of the wells and then incubated for 2 hours at 37° C. in 5% CO2. 5 μl of test compounds at appropriate concentrations (10-11 to 3×10-7) diluted in test medium were then transferred in 384 wells plates. After 5 min of activation, the reaction was stopped by addition of HTRF revelation reagents with a multidrop dispenser. The two reagents were 5 μl/well of Anti-CAMP-cryptate diluted 20-fold in conjugate and lysis buffer and 5 μl/well of cAMP-D2 diluted 20-fold in conjugate and lysis buffer. After one-hour incubation at room temperature in the dark, the plates were read on a Clariostar apparatus.

[2] = Solubility in buffer systems by UPLC-UV (Example 13); type: physicochemical
Outline: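 The supernatant was diluted 1:10 and quantified by UPLC-UV peak area against a reference standard curve, correcting for sequence-based extinction coefficients.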

[3] = tested on: rat CRF2R α receptor; assay: cAMP agonism at rat CRF2R α receptor in A7R5 rat aortic smooth muscle cells (Example 8); type: cell-based; conditions: cAMP HTRF, A7R5 rat aortic smooth muscle cell line, 0% HSA
Outline: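 Thawed cryopreserved A7R5 cells in HBSS/20 mM HEPES (0 or 0.1% HSA) with 2 mM IBMX, 2000 cells/well, were exposed to compound for 30 min at room temperature. cAMP was read by HTRF (665/620 nm ratio) after 1 h with lysis reagents. Activity was normalised to 1000 nM urocortin 2 as 100%, and EC50 was taken as the concentration giving 50% of maximal activation.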

[4] = target: T2, CRF1R receptor (Homo sapiens, UniProt P34998); assay: cAMP activity at anti-target CRF1R, CRF1R-overexpression CHO cell line (Example 9); type: cell-based; conditions: CRF1R-overexpression CHO cell line
T2 construct: host or cells: CHO-K1 clone 2
T2 sequence (P34998 24-415): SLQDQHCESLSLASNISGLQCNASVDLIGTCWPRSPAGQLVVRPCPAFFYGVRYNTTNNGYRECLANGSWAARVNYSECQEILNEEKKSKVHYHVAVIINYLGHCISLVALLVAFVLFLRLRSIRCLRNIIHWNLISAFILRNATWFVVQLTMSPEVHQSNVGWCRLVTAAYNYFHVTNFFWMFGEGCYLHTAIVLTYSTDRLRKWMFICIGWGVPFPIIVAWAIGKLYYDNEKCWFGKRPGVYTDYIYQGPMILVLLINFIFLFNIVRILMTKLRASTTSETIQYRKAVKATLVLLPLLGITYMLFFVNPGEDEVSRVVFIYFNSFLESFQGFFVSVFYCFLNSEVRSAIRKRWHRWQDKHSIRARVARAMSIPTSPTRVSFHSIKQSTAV
Outline: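 cAMP accumulation was read by HTRF after 30 min at room temperature of compound treatment. Cells were cryopreserved CHO cells overexpressing CRF1R, plated at 2000/well in IBMX (2 mM)-containing HBSS/HEPES buffer with 0 or 0.1% HSA. Activity was normalized to 1000 nM UCN2 as 100%.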

[5] = target: T3, human CRF2α receptor (Homo sapiens, UniProt Q13324); assay: cAMP agonism at human CRF2 α receptor in TeloHEAC cells (Example 7); type: cell-based; conditions: cAMP HTRF, TeloHEAC cells stably expressing human CRF2 α
T3 construct: expressed in transfected cells; host or cells: TeloHEAC
T3 sequence (Q13324 1-411): T1 sequence (Q13324 1-411)
Outline: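 Percent activation was referenced to 1000 nM UCN2 (100%), and EC50 values taken as concentrations giving half of maximal response. The read-out was a homogeneous time-resolved fluorescence cAMP kit, fluorescence ratio 665/620 nm. Thawed cells (2000/well) saw compound for 30 min at RT in buffer with 2 mM IBMX and 0%/0.1% HSA.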

[6] = target: T4, anti-target CRF1R receptor (UniProt P34998 24-415, limits assumed); assay: cell-based or functional assay
T4 sequence (looked up): T2 sequence (P34998 24-415)

[7] = target: T5, recombinant human CRF2 (HEK cell membranes) (human, UniProt Q13324 1-411); assay: radioligand competition against [125]sauvagine (0.1 nM), HEK membranes with recombinant human CRF2; Cheng Prusoff
T5 construct: Whole receptor in membranes prepared from HEK cells; also called CRF2a (h); CRF2 receptor
T5 sequence (looked up): T1 sequence (Q13324 1-411)
Procedure: (§1) HEK cells expressing recombinant human CRF2 were used as a source of receptor for membrane preparation.
(§2) IC50 values (concentration causing a half-maximal inhibition of control specific binding) and Hill coefficients (nH) were determined by non-linear regression analysis of the competition curves generated with mean replicate values using Hill equation curve fitting. The inhibition constants (Ki) were calculated using the Cheng Prusoff equation [Ki=IC50/(1+L/KD) where L is the concentration of radioligand in the assay, and KD is the affinity of the radioligand for the receptor). A Scatchard plot was used to determine the KD.

[8] = target: T6, endogenous human CRF2 (NCI-H82 cells) (human, UniProt Q13324 20-411); assay: cell-based or functional assay
T6 sequence (looked up): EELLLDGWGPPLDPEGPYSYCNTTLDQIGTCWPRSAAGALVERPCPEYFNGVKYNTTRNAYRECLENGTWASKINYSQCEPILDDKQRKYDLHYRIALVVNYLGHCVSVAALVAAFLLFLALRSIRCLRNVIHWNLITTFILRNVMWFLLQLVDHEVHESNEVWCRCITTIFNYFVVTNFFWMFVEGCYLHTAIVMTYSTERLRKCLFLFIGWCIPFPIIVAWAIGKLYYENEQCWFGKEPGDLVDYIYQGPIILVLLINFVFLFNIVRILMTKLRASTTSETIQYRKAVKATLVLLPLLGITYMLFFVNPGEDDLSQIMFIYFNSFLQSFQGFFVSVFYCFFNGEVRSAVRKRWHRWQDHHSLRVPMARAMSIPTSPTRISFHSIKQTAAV

[9] = target: rat CRF2R α receptor (rat, UniProt P47866 20-411); assay: cell-based or functional assay
[10] = target: T5, recombinant human CRF2 (HEK cell …); assay: Hill coefficient of the competition curve against [125]sauvagine, HEK membranes with recombinant human CRF2
Procedure: as §1, §2

## CC[C@H](C)[C@H](N)C(=O)N[C@H](C(=O)N[C@@H](CC(C)C)C(=O)N[C@@H](CO)C(=O)N[C@@H](CC(C)C)C(=O)N[C@@H](CC(=O)O)C(=O)N[C@H](C(=O)N1CCC[C@H]1C(=O)N[C@H](C(=O)N[C@@H](CCCCN)C(=O)N[C@@H](CC(C)C)C(=O)N[C@@H](CCCCNC(=O)COCCOCCNC(=O)COCCOCCNC(=O)CC[C@H](NC(=O)CCCCCCCCCCCCCCCCCCC(=O)O)C(=O)O)C(=O)N[C@@H](CCC(N)=O)C(=O)N[C@H](C(=O)N[C@@H](CC(C)C)C(=O)N[C@@H](CC(C)C)C(=O)N[C@@H](CCC(=O)O)C(=O)N[C@@H](CCC(N)=O)C(=O)N[C@@H](CCC(=O)O)C(=O)N[C@@H](CCCCN)C(=O)N[C@@H](CCC(N)=O)C(=O)N[C@@H](CCCCN)C(=O)NC(C)(C)C(=O)N[C@@H](CCC(N)=O)C(=O)N[C@@H](CCCNC(=N)N)C(=O)N[C@@H](CCC(=O)O)C(=O)N[C@@H](CCC(N)=O)C(=O)N[C@@H](C)C(=O)N[C@@H](CCC(=O)O)C(=O)N[C@H](C(=O)N[C@@H](CC(N)=O)C(=O)N[C@@H](CCCCN)C(=O)N[C@@H](CCC(N)=O)C(=O)N[C@H](C(=O)N[C@@H](CC(C)C)C(=O)N[C@@H](C)C(=O)N[C@@H](CCC(N)=O)C(=O)N[C@H](C(N)=O)C(C)C)[C@@H](C)CC)[C@@H](C)O)[C@@H](C)CC)[C@@H](C)CC)C(C)C)C(C)C [compound 81] (H-IVLSLDVPIKLK([AEEA-AEEA-γGlu-C20 diacid])QILLEQEKQK[Aib]QREQAETNKQILAQV-NH2)
[1]
  EC50: 110 nM
[2]; pH 4.5, Solubility in Buffer B [mg/ml]
  solubility at 1 h: 20.4 mg/mL (≈ 3.97 mM)
[2]; pH 7.4, Solubility in Buffer C [mg/ml]
  solubility at 1 h: > 9.6 mg/mL
[3]
  EC50: 0.94 nM
[4]; 0% HSA
  EC50: > 1000 nM
[4]; read-out: Emax (%)
  Emax: 23.3%
[5]; 0% HSA, read-out: EC50 [nM], 0% HSA
  EC50: 0.14 nM
[5]; 0.1% HSA, read-out: EC50 [nM], 0.1% HSA
  EC50: 18.5 nM

## FTLSLDVPTKIK([AEEA-AEEA-γGlu-C20 diacid])QILLKQQKQKKERQQAEKNKQLLEQI-NH2 [peptide of SEQ ID NO: 59]
[6]
  EC50[nM] 0% HSA (cAMP, CRF1R-overexpression CHO cells): > 1000 nM
  Emax (%) (cAMP, CRF1R-overexpression CHO cells): 11.1%
[7]
  Ki: 7.2 nM
[8]
  EC50 [nM] (cAMP, NCI-H82 cells): 6.8 nM
[9]
  EC50 [nM], 0% HSA (cAMP, A7R5 cells): 0.34 nM
[10]
  nH: 0.6

B1: peptide of SEQ ID NO: 35 (peptide)
peptide: IVLSLDVPIKLK([AEEA-AEEA-γGlu-C18 diacid])KILLEQEKQKKQREQAETNKQILAQV-NH2
modifications: N-terminus assumed
SMILES: CC[C@H](C)[C@H](N)C(=O)N[C@H](C(=O)N[C@@H](CC(C)C)C(=O)N[C@@H](CO)C(=O)N[C@@H](CC(C)C)C(=O)N[C@@H](CC(=O)O)C(=O)N[C@H](C(=O)N1CCC[C@H]1C(=O)N[C@H](C(=O)N[C@@H](CCCCN)C(=O)N[C@@H](CC(C)C)C(=O)N[C@@H](CCCCNC(=O)COCCOCCNC(=O)COCCOCCNC(=O)CC[C@H](NC(=O)CCCCCCCCCCCCCCCCC(=O)O)C(=O)O)C(=O)N[C@@H](CCCCN)C(=O)N[C@H](C(=O)N[C@@H](CC(C)C)C(=O)N[C@@H](CC(C)C)C(=O)N[C@@H](CCC(=O)O)C(=O)N[C@@H](CCC(N)=O)C(=O)N[C@@H](CCC(=O)O)C(=O)N[C@@H](CCCCN)C(=O)N[C@@H](CCC(N)=O)C(=O)N[C@@H](CCCCN)C(=O)N[C@@H](CCCCN)C(=O)N[C@@H](CCC(N)=O)C(=O)N[C@@H](CCCNC(=N)N)C(=O)N[C@@H](CCC(=O)O)C(=O)N[C@@H](CCC(N)=O)C(=O)N[C@@H](C)C(=O)N[C@@H](CCC(=O)O)C(=O)N[C@H](C(=O)N[C@@H](CC(N)=O)C(=O)N[C@@H](CCCCN)C(=O)N[C@@H](CCC(N)=O)C(=O)N[C@H](C(=O)N[C@@H](CC(C)C)C(=O)N[C@@H](C)C(=O)N[C@@H](CCC(N)=O)C(=O)N[C@H](C(N)=O)C(C)C)[C@@H](C)CC)[C@@H](C)O)[C@@H](C)CC)[C@@H](C)CC)C(C)C)C(C)C
[6]
  EC50[nM] 0% HSA (cAMP, CRF1R-overexpression CHO cells): > 1000 nM
  Emax (%) (cAMP, CRF1R-overexpression CHO cells): 1.77%
[7]
  Ki: 7.9 nM
[8]
  EC50 [nM] (cAMP, NCI-H82 cells): 23 nM
[9]
  EC50 [nM], 0% HSA (cAMP, A7R5 cells): 0.81 nM
[10]
  nH: 1.7

— patent US12679878B2, “CRF2 receptor agonists and their use in therapy” (SANOFI, priority 2020, dated 2026)
